Data as given in paper PMC4684421 (Protein expression and purification, 2015).
Where two headings read alike, the source gives them in different places. One block for each molecule: values may come before it.

Legend:
Experiment in all cases: enzyme inhibition kinetics
[1] = molecular target: Cathepsin B (human)
[2] = molecular target: Cathepsin B (human); remark: listed apart in the source
[3] = molecular target: T1, Papain (UniProt P00784 134-345)
T1 sequence (looked up): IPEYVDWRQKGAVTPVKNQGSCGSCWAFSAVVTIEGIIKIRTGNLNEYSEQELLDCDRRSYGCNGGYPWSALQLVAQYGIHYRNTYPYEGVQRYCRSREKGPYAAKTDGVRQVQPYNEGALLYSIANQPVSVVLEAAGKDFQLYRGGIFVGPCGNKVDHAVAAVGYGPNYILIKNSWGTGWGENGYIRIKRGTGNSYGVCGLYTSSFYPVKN

[4] = molecular target: T1, Papain; remark: listed apart in the source

Ki [1]: 60 pM
Ki [2]: 100 pM
Molecule: Human cystatin C (from UniProt P01034 27-146) (natural protein)

Ki [3]: < 7 pM
Ki [4]: < 5 pM
B1: Human cystatin C (natural protein, UniProt P01034 27-146, looked up)
chain: SSPGKPPRLVGGPMDASVEEEGVRRALDFAVGEYNKASNDMYHSRALQVVRARKQIVAGVNYFLDVELGRTTCTKTQPNLDNCPFHDQPHLKRKAFCSFQIYAVPWQGTMTLSKSTCQDA
